Data set [1] concerns the target Interferon gamma (IFN-γ) (Homo sapiens, UniProt P01579 P01579:24-166). In words: FRET ratiometric photodiode aptasensor; aptamer on AF555-streptavidin/biotin-BSA surface; signal change 0.1-10 pM, LOD 1 pM, saturated at 100 pM-1 nM; 1x PBS; reversible by 55 C water wash. The settings on record: tags: R&D Systems, recombinant human IFN-γ; chain copies: 2; label: Cy5 (5'), biotin (3'); hairpin (self-hybridizes without IFN-γ). The source says:
To package the PD array for ratiometric aptasensing experiments, a 50 μm tall PDMS microfluidic channel with one inlet and one outlet hole was fabricated via a standard SU-8 photolithography process, and then bonded the microfluidic channel over the PD array via O₂ plasma. Tubing was inserted into the inlet and outlet holes to allow for injection and removal of analytes. To achieve ratiometric aptasensing […], the surface of the array was functionalized by sequentially introducing BSA, AF555 conjugated streptavidin, and biotinylated Cy5 labeled IFN-γ DNA aptamers. After each analyte's respective incubation period, the extra unbonded analyte was removed by washing with 9 mL deionized water.
Following this surface functionalization procedure, two aptasensing experiments were conducted where, in each experiment, the device was kept in 1×PBS and sequentially introduced 0.1 pM-1 nM analyte in 15-minute intervals followed by a water washing step and reintroduced analytes and water washing as 2nd round via the microfluidic channel (FID. 10a-c). During introducing each concentration, an upright fluorescence microscope was used to illuminate the PD array with pulses of 550/15 nm excitation light (Ilight=100%, 260 mW) which have tₒₙ/toff=18/162 s (i.e., 3 min period) to alleviate the photobleaching effect. […]

For data set [2], the target named is Streptavidin (UniProt P22629 P22629:25-183). In words: specificity control; 0.1 pM-1 nM free streptavidin, <5% signal change, 1x PBS; biotinylated aptamer already immobilised on surface streptavidin. The settings on record: tags: Sigma Aldrich; chain copies: 4; label: Cy5 (5'), biotin (3'); hairpin (self-hybridizes without IFN-γ). Here is the method:
After each analyte's respective incubation period, the extra unbonded analyte was removed by washing with 9 mL deionized water.
Following this surface functionalization procedure, two aptasensing experiments were conducted where, in each experiment, the device was kept in 1×PBS and sequentially introduced 0.1 pM-1 nM analyte in 15-minute intervals followed by a water washing step and reintroduced analytes and water washing as 2nd round via the microfluidic channel (FID. 10a-c). During introducing each concentration, an upright fluorescence microscope was used to illuminate the PD array with pulses of 550/15 nm excitation light (Ilight=100%, 260 mW) which have tₒₙ/toff=18/162 s (i.e., 3 min period) to alleviate the photobleaching effect.
For the first experiment, streptavidin was sequentially introduced as a control to evaluate the specificity of the array. […] For the second experiment, IFN-γ was sequentially introduced to evaluate the sensibility of the array. […] Due to this conformation change, less AF555 emission light will excite the Cy5 molecules, leading to the observed increase [decrease] in AF555 [Cy5] pixel signals.

Sequence of Streptavidin (P22629 25-183, one chain of several): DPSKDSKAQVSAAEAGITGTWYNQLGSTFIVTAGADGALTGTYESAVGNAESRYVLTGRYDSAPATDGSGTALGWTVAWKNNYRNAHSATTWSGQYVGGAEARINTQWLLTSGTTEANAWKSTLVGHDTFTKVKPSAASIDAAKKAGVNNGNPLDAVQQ
Sequence of Interferon gamma (IFN-γ) (P01579 24-166, one chain of several): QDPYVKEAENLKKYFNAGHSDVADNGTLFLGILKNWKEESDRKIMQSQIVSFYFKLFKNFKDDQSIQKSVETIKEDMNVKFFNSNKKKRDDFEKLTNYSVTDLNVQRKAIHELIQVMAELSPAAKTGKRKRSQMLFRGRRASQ

For the molecule GGGGTTGGTTGTGTTGGGTGTTGTGTCCAACCCCTTT (ssDNA, 5' Cy5, 3' biotin [1 (5' Cy5), 37 (3' biotin)]) [IFN-γ DNA aptamer], the binding result in data set [1] is given as “binds”; in data set [2], “no binding”.

For the origin of these results see patent publication US20220278152, “SPECTRALLY FILTERED PHOTODIODE PAIR” (UNIVERSITY OF MASSACHUSETTS, published 2022).
